Experimental data taken from PMC3170999 (Molecular cancer therapeutics, 2011).
Where a chain is given by its changes, count along the chain named. Values belong to the binder of their own block, whether it stands above or below them.

Tests used:
[1] = target: Biotinylated human IGF2 (Homo sapiens, UniProt P01344, biotin); assay: flow cytometry on cells
[2] = target: Biotinylated human IGF1 (human, UniProt P05019, biotin); assay: flow cytometry on cells
[3] = target: T1, Human IGF2 (Homo sapiens, UniProt P01344); assay: SPR
[4] = target: T2, Recombinant human IGF1 (Homo sapiens, UniProt P05019); assay: SPR
[5] = target: T1, Human IGF2; assay: SPR; remark: listed apart in the source
[6] = target: T2, Recombinant human IGF1; assay: SPR; remark: listed apart in the source

Kd [1]: 1.1 nM
Kd [2]: 3.9 nM
B1: scFv m708.2, yeast-displayed (scFv, V domains shown)
VH: QVQLQQPGAEVKKPGSSVKVSCKASGGTFSSYAISWVRQAPGQGLEWMGGIIPILGIANYAQKFQGRVTITADESTSTAYMELSSLRSEDTAVYYCARGPRGYSYNFDYWGQGTLVTVSS
VL: DIQMTQSPSSLSASVGDRVTIACRASQTISRYLNWYQQKPGKAPKLLIYAASSLQSGVSSRFSGSGSGTEFTLTISSLQPEDFATYFCQQTYSPPITFGQGTRLEIK

Kd [3]: 0.061 nM
koff [3]: 2.5e-06 s⁻¹
Kd [4]: 0.2 nM
koff [4]: 0.00028 s⁻¹
B2: scFv m708.5, purified soluble (scFv, V domains shown)
VH: B1 VH with P7L, K13M, I54T, A58V, N59K, E74K, R87G, R98G, Y109N
VL: B1 VL with A22V, L33V, T72A

More lines, now with the values behind:

B3: scFv m708.2, purified soluble (scFv, V domains shown)
VH: B1 VH
VL: B1 VL
Kd [3]: 1.8 nM
koff [3]: 0.0004 s⁻¹
Kd [4]: 2.2 nM
koff [4]: 0.0024 s⁻¹

B4: IgG1 m708.5 (antibody, V domains shown)
VH: B1 VH with P7L, K13M, I54T, A58V, N59K, E74K, R87G, R98G, Y109N
VL: B1 VL with A22V, L33V, T72A
fold change of the effective KD against the KD of scFv m708.5 [5]: 60 fold
fold change of the effective KD against the KD of scFv m708.5 [6]: 1000 fold

B5: scFv m708.5, yeast-displayed (scFv, V domains shown)
VH: B1 VH with P7L, K13M, I54T, A58V, N59K, E74K, R87G, R98G, Y109N
VL: B1 VL with A22V, L33V, T72A
Kd [1]: 0.041 nM
Kd [2]: 0.1 nM
